According to article PMC7691336:
Values joined by “and” are separate entries in the source; they are usually repeats but may differ in a detail not shown here. Equal entries are not always repeated.

How the values were obtained:
[1] = biological target: cardiac ryanodine receptor (RyR2), wild type, mouse heart (mouse (endogenous in cardiac homogenates)) (UniProt E9Q401); experiment: cross-linking; CaM-SANPAH at rising concentrations (to 1024 nM; also 3000) mixed with mouse cardiac homogenates (1 mg/mL) in 150 mmol/L KCl, 10 umol/L CaCl2, 20 mmol/L MES pH 6.8; 10 min binding, UV cross-linking, anti-CaM blot of the 550 kDa band; binding as ratio to the maximum; one Kd for each heart; hearts of sham-operated mice
[2] = biological target: cardiac ryanodine receptor (RyR2) V3599K, knock-in mouse heart (mouse (endogenous in cardiac homogenates)) (UniProt E9Q401); experiment: as above
[3] = biological target: cardiac ryanodine receptor (RyR2), wild type, mouse heart (mouse (endogenous in cardiac homogenates)) (UniProt E9Q401); experiment: cross-linking; CaM-SANPAH at rising concentrations (to 1024 nM; also 3000) mixed with mouse cardiac homogenates (1 mg/mL) in 150 mmol/L KCl, 10 umol/L CaCl2, 20 mmol/L MES pH 6.8; 10 min binding, UV cross-linking, anti-CaM blot of the 550 kDa band; binding as ratio to the maximum; one Kd for each heart; hearts 2 weeks after transverse aortic constriction (TAC 2W)
[4] = biological target: cardiac ryanodine receptor (RyR2) V3599K, knock-in mouse heart (mouse (endogenous in cardiac homogenates)) (UniProt E9Q401); experiment: as above

Kd [1]: 61.4 nM and 66.9 nM and 54.7 nM (2×) | Kd [2]: 47.4 nM and 51.6 nM (2×) and 74.2 nM | Kd [3]: 118 nM and 151 nM and 139 nM | Kd [4]: 55.9 nM and 44.2 nM and 82.9 nM
Substance: CaM-SANPAH conjugate (recombinant calmodulin) (from UniProt P0DP23 1-149) (natural protein)
